# Data taken from the supplement of paper PMC10065799, “High-throughput profiling of sequence recognition by tyrosine kinases and SH2 domains using bacterial peptide display” (eLife, 2023).
# Tests used:
# [1] = system: AncSZ; test: phosphorylation enrichment, bacterial display (enrichment ratio); higher = better substrate or ligand; peptides without Tyr show the background
# [2] = target: EPHB1 (UniProt P54762); test: as above
# [3] = target: EPHB2 (UniProt P29323); test: as above
# [4] = target: FGFR1 (UniProt P11362); test: as above
# [5] = target: FGFR3 (UniProt P22607); test: as above
# Sequence of FGFR3 (P22607 whole entry, looked up): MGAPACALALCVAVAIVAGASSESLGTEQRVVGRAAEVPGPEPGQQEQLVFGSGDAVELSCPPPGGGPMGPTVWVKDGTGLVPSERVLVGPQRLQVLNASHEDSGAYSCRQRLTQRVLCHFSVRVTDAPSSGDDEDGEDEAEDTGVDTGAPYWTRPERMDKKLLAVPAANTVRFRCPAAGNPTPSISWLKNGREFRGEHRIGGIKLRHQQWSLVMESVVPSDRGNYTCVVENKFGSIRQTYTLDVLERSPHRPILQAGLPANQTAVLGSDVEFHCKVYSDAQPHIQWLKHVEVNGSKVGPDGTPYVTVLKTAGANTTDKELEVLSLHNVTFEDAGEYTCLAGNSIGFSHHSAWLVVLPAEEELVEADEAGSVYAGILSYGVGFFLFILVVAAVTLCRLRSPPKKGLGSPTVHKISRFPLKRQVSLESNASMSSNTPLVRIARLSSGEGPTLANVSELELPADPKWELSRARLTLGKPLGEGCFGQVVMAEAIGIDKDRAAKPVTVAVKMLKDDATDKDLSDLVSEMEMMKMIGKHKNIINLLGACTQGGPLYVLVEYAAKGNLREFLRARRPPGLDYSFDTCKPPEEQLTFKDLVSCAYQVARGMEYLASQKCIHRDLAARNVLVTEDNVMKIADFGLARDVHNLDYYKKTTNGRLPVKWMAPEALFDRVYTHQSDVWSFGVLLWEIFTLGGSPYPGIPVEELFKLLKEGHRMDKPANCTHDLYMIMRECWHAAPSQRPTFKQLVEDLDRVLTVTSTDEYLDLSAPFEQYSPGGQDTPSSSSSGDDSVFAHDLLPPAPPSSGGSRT
# [6] = system: Fer (mouse); test: as above
# [7] = target: Fes (UniProt P07332); test: as above
# [8] = target: Fyn (UniProt P06241); test: as above
# Sequence of Fyn (P06241 whole entry, looked up): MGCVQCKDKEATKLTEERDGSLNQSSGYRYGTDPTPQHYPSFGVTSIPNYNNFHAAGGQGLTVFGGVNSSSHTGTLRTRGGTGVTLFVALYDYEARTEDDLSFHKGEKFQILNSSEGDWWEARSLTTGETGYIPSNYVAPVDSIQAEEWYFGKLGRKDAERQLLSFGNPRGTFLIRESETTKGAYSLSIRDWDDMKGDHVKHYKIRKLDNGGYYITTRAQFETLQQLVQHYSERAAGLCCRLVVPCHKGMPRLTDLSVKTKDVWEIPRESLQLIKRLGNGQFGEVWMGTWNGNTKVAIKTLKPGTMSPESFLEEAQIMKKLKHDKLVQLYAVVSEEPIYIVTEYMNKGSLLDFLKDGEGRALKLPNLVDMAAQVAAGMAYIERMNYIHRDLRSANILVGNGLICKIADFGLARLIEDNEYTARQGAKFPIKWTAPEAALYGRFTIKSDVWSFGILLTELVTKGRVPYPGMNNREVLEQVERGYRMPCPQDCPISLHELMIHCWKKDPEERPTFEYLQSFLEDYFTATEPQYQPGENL
# [9] = target: Hck (UniProt P08631); test: as above
# Sequence of Hck (P08631 whole entry, looked up): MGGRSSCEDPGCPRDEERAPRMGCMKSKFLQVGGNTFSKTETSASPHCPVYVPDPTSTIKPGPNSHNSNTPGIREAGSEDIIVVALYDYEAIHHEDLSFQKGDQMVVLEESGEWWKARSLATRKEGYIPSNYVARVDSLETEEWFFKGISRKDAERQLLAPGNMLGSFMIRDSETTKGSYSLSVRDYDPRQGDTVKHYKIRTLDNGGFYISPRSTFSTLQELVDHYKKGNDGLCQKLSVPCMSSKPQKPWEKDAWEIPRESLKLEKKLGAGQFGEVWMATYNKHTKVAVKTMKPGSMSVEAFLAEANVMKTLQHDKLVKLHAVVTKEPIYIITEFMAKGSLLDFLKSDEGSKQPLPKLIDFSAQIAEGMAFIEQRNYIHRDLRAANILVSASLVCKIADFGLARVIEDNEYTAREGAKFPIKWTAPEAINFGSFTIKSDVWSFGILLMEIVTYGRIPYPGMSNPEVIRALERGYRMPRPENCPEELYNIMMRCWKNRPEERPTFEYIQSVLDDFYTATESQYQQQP
# [10] = target: Jak2 (UniProt O60674); test: as above
# Sequence of Jak2 (O60674 whole entry, looked up): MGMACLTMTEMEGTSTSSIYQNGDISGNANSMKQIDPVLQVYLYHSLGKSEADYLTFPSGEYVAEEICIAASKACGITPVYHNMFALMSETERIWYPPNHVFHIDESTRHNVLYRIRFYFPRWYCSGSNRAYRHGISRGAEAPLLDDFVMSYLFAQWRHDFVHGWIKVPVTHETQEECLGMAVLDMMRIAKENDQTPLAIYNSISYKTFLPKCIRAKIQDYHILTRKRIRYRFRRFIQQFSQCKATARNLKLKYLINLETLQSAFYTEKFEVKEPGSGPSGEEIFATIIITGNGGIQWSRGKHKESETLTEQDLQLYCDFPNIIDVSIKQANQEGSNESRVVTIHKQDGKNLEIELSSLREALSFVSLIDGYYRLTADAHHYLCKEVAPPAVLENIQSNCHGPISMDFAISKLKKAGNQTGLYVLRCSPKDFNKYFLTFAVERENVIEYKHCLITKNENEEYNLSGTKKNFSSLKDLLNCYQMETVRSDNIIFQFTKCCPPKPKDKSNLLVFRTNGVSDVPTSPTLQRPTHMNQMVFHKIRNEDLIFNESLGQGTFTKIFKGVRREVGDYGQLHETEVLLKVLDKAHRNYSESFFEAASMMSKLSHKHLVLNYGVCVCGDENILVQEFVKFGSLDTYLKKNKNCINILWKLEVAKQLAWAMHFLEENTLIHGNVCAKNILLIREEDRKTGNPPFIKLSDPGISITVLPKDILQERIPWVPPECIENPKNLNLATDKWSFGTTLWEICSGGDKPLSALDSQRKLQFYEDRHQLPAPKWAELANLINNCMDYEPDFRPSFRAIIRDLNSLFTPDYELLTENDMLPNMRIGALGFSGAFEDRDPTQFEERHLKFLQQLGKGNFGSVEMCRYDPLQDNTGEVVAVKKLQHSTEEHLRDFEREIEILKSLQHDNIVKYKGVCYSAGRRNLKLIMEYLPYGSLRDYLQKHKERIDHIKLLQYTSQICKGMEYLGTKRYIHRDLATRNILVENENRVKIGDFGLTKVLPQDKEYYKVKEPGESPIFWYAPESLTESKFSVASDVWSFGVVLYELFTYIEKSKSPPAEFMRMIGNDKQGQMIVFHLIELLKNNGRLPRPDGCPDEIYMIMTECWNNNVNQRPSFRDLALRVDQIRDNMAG
# [11] = target: MERTK (UniProt Q12866); test: as above
# [12] = system: c-Abl (mouse); test: as above
# [13] = system: c-Src; test: as above
# [14] = target: Grb2 SH2 (UniProt P62993); test: SH2 binding enrichment of the phosphorylated peptide, bacterial display (enrichment ratio); higher = better substrate or ligand; peptides without Tyr show the background
# [15] = target: SHP2-C SH2; test: as above
# [16] = target: c-Src SH2; test: as above
# 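Throughout, for SH2 binding enrichment of the phosphorylated peptide, bacterial display: peptide library displayed on the E. coli surface as eCPX fusions, selected cells deep-sequenced, score is each peptide's frequency after selection divided by its frequency in the input.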
# 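Throughout, for phosphorylation enrichment, bacterial display: 11-residue human phosphosite peptides and single-mutation variants displayed on the E. coli surface, counted by deep sequencing, each peptide's frequency after selection divided by its frequency in the unselected input library; frequency after pTyr selection over input frequency; kinase dosed for 20-30% of maximal phosphorylation in three min.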
# Sequence of EPHB2 (P29323 whole entry, looked up): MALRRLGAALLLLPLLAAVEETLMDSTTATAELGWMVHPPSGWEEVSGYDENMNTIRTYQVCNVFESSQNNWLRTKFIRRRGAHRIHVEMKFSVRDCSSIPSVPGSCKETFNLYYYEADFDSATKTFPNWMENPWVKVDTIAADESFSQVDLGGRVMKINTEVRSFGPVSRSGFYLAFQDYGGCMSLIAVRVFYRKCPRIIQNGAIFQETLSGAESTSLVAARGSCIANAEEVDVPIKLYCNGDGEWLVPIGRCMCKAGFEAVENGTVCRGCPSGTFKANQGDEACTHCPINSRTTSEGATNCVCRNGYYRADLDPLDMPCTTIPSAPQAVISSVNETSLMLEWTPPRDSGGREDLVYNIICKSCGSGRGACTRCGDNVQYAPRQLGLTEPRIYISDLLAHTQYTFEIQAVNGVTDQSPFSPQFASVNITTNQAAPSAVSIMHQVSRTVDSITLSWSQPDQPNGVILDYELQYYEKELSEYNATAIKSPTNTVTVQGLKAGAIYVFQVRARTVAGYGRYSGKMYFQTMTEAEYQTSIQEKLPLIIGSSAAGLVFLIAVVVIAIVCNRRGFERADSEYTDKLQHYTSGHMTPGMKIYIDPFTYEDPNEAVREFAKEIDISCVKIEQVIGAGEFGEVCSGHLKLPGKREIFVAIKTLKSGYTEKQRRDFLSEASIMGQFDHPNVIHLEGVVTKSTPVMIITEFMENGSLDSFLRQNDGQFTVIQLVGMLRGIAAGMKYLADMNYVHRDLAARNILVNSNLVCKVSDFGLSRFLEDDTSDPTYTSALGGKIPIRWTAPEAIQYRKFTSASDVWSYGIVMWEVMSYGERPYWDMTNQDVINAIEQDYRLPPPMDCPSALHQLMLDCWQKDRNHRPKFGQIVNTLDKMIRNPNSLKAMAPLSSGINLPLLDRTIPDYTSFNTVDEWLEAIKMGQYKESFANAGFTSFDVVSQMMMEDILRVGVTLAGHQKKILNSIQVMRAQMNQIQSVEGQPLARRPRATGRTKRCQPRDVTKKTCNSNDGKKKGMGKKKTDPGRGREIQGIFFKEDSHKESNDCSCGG
# Sequence of EPHB1 (P54762 whole entry, looked up): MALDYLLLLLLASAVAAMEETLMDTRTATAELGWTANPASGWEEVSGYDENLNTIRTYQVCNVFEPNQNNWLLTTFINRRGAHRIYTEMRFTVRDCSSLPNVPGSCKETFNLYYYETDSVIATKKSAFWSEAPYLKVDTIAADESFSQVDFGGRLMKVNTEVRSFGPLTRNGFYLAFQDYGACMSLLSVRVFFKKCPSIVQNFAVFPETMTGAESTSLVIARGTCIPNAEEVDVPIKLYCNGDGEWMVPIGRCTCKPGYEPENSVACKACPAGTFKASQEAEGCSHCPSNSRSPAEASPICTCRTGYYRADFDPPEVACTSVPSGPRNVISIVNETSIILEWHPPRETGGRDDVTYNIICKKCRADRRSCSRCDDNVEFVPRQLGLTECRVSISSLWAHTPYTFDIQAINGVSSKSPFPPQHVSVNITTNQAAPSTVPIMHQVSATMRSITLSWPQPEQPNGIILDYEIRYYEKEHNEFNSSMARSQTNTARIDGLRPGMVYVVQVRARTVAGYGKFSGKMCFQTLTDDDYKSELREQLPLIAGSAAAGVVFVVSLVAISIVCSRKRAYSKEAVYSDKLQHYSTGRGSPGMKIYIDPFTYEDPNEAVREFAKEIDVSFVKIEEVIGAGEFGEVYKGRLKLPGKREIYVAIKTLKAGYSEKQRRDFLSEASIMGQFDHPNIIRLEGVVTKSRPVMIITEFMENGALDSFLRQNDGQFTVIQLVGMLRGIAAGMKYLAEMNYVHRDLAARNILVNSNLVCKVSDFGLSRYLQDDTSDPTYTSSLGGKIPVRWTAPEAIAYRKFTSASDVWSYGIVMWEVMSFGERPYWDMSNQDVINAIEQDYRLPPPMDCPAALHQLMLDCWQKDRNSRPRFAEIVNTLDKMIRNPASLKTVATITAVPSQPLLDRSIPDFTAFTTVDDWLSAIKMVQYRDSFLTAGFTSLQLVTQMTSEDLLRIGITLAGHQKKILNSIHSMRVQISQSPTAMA
Sequence,phosphorylation enrichment [1],phosphorylation enrichment [2],phosphorylation enrichment [3],phosphorylation enrichment [4],phosphorylation enrichment [5],phosphorylation enrichment [6],phosphorylation enrichment [7],phosphorylation enrichment [8],phosphorylation enrichment [9],phosphorylation enrichment [10],phosphorylation enrichment [11],phosphorylation enrichment [12],phosphorylation enrichment [13],SH2 binding enrichment [14],SH2 binding enrichment [15],SH2 binding enrichment [16]
MGRVKYGAFIN [GLB1_Y485_N484K_YF],0.566,0.368,0.376,0.402,0.453,0.348,0.701,0.382,0.439,0.528,0.443,0.532,0.458,1.62,1.59,1.23
MHFSNYVSKGS [PDGFRA_Y849_D846Y_YF],0.522,0.604,0.439,0.394,0.565,0.367,0.578,0.495,0.457,0.489,0.381,0.406,0.384,0.831,0.578,0.551
MKKKIYAMGGG [GAN_Y424],0.397,0.335,0.302,0.376,0.341,0.389,0.465,0.297,0.414,0.39,0.432,0.519,0.393,1.15,0.979,0.679
MKNDLYQTPLH [NFKB1_Y582_R578K],1.4,0.668,1.11,0.473,0.502,2.2,0.695,1.16,4.13,0.727,1.81,5.91,1.63,0.774,0.604,0.585
MKSIKYMDKEV [CCDC60_Y41_I46V],0.664,0.325,0.316,0.437,0.545,0.355,0.554,0.344,0.399,0.567,0.334,0.492,0.375,0.742,0.515,0.413
MNPPPYSQFLS [FGF23_Y154],0.585,0.467,0.44,0.508,0.567,0.711,0.706,0.478,0.511,0.687,0.543,0.536,1.38,0.742,0.489,0.541
MPIPMYDASQA [CARMIL1_Y637],0.751,0.867,1.01,0.595,0.629,0.565,0.73,0.643,0.552,0.717,0.566,0.824,0.46,0.887,0.75,0.537
MPIPMYDGSQA [CARMIL1_Y637_A639G],0.623,1.1,0.634,0.434,0.532,0.402,0.777,0.52,0.53,0.963,0.447,0.639,0.44,0.746,0.53,0.452
MRAIIYNSSTA [PLEKHA7_Y243_L241I],0.812,0.473,0.609,0.554,0.623,0.528,0.838,0.509,0.501,0.765,0.47,1.04,0.447,0.679,0.665,0.456
NAPNSYGRRPS [CDKN2A_Y44_I49S],0.805,0.481,0.593,0.46,0.541,0.588,0.849,0.582,0.512,0.711,0.499,0.63,0.49,0.774,0.533,0.747
NFDRVYIYHLR [MYOF_Y1137],1.19,0.593,0.618,0.575,0.755,0.612,1.23,0.858,0.782,1.03,0.528,0.718,1.01,1.23,5.25,0.896
NFGTNYRVGSS [CPO_Y278_K273N_YF],0.602,0.417,0.515,0.508,0.424,0.429,0.716,0.43,0.482,0.534,0.42,0.525,0.442,0.88,0.634,0.418
NGQALYAACQT [XDH_Y1092_V1091L],0.775,9.24,9.92,0.554,0.562,6.91,0.916,3.2,4.99,0.687,6.34,2.26,3.35,0.782,0.787,0.456
NIQKKYFRAIL [CHD7_Y1217_YF],0.625,0.37,0.383,0.436,0.433,0.399,0.655,0.352,0.421,0.718,0.458,0.43,0.335,0.96,0.838,0.566
NIWDSYTTNKV [GNB1_Y85_I80N],1,0.515,0.488,0.497,0.658,0.414,0.9,0.416,0.497,0.663,0.387,0.656,0.437,0.983,0.709,0.425
NKFTTYLPWLP [C9orf24_Y126_R129W_YF],1.04,3.63,6.61,1.43,1.25,6.84,1.06,5.73,8.27,1.75,1.4,1.6,4.54,1.19,0.89,0.815
